Experimental data from publication PMC11574045, “A cofactor-induced repressive type of transcription factor condensation can be induced by synthetic peptides to suppress tumorigenesis” (The EMBO Journal, 2024).

B1: TCF15 (protein, UniProt Q12870 1-199, looked up)
Transcription factor 15: MAFALLRPVGAHVLYPDVRLLSEDEENRSESDASDQSFGCCEGPEAARRGPGPGGGRRAGGGGGAGPVVVVRQRQAANARERDRTQSVNTAFTALRTLIPTEPVDRKLSKIETVRLASSYIAHLANVLLLGDSADDGQPCFRAAGSAKGAVPAAADGGRQPRSICTFCLSNQRKGGGRRDLGGSCLKVRGVAPLRGPRR
B2: TCF21 (protein, UniProt O43680 1-179, looked up)
Transcription factor 21: MSTGSLSDVEDLQEVEMLECDGLKMDSNKEFVTSNESTEESSNCENGSPQKGRGGLGKRRKAPTKKSPLSGVSQEGKQVQRNAANARERARMRVLSKAFSRLKTTLPWVPPDTKLSKLDTLRLASSYIAHLRQILANDKYENGYIHPVNLTWPFMVAGKPESDLKEVVTASRLCGTTAS
B3: TCF24 (protein, UniProt Q7RTU0 1-167, looked up)
Transcription factor 24: MDRGRPAGSPLSASAEPAPLAAAIRDSRPGRTGPGPAGPGGGSRSGSGRPAAANAARERSRVQTLRHAFLELQRTLPSVPPDTKLSKLDVLLLATTYIAHLTRSLQDDAEAPADAGLGALRGDGYLHPVKKWPMRSRLYIGATGQFLKHSVSGEKTNHDNTPTDSQP
B4: TCFL5 (protein, UniProt Q9UL49 1-500, looked up)
Transcription factor-like 5 …: MSGPGPREPPPEAGAAGGEAAVEGAGGGDAALGEPGLSFTTTDLSLVEMTEVEYTQLQHILCSHMEAAADGELETRLNSALLAAAGPGAGAGGFAAGGQGGAAPVYPVLCPSALAADAPCLGHIDFQELRMMLLSEAGAAEKTSGGGDGARARADGAAKEGAGAAAAAAGPDGAPEARAKPAVRVRLEDRFNSIPAEPPPAPRGPEPPEPGGALNNLVTLIRHPSELMNVPLQQQNKCTALVKNKTAATTTALQFTYPLFTTNACSTSGNSNLSQTQSSSNSCSVLEAAKHQDIGLPRAFSFCYQQEIESTKQTLGSRNKVLPEQVWIKVGEAALCKQALKRNRSRMRQLDTNVERRALGEIQNVGEGATATQGAWQSSESSQANLGEQAQSGPQGGRSQRRERHNRMERDRRRRIRICCDELNLLVPFCNAETDKATTLQWTTAFLKYIQERHGDSLKKEFESVFCGKTGRRLKLTRPDSLVTCPAQGSLQSSPSMEIK
B5: TCF25 (protein, UniProt Q9BQ70 1-676, looked up)
Ribosome quality control …: MSRRALRRLRGEQRGQEPLGPGALHFDLRDDDDAEEEGPKRELGVRRPGGAGKEGVRVNNRFELINIDDLEDDPVVNGERSGCALTDAVAPGNKGRGQRGNTESKTDGDDTETVPSEQSHASGKLRKKKKKQKNKKSSTGEASENGLEDIDRILERIEDSTGLNRPGPAPLSSRKHVLYVEHRHLNPDTELKRYFGARAILGEQRPRQRQRVYPKCTWLTTPKSTWPRYSKPGLSMRLLESKKGLSFFAFEHSEEYQQAQHKFLVAVESMEPNNIVVLLQTSPYHVDSLLQLSDACRFQEDQEMARDLVERALYSMECAFHPLFSLTSGACRLDYRRPENRSFYLALYKQMSFLEKRGCPRTALEYCKLILSLEPDEDPLCMLLLIDHLALRARNYEYLIRLFQEWEAHRNLSQLPNFAFSVPLAYFLLSQQTDLPECEQSSARQKASLLIQQALTMFPGVLLPLLESCSVRPDASVSSHRFFGPNAEISQPPALSQLVNLYLGRSHFLWKEPATMSWLEENVHEVLQAVDAGDPAVEACENRRKVLYQRAPRNIHRHVILSEIKEAVAALPPDVTTQSVMGFDPLPPSDTIYSYVRPERLSPISHGNTIALFFRSLLPNYTMEGERPEEGVAGGLNRNQGLNRLMLAVRDMMANFHLNDLEAPHEDDAEGEGEWD

test system: HEK293FT cells transfected with TF library; test: Screening of TF condensates based on fluorescent puncta; type: cell-based; settings: Figure 1B numerical data; TF library screen, one value per transcriptional factor
In short: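 HEK293FT cells were reverse-transfected with Flag- or GAL4-tagged TF plasmids (1.6 μg/ml, PEI). After 60 h, cells were cultured 12 h with or without glucose, then fixed and immunostained with anti-Flag or anti-GAL4 and Alexa 488 secondaries. Fluorescent puncta were imaged over fifty random fields per well by high-content imaging.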

Point of comparison: B5, “Z score of condensed fraction” value 2.145. Against it:
- B1 — lower, 0.7138
- B2 — lower, 0.06751
- B3 — lower, -0.9879
- B4 — lower, -0.869
